# Experimental data from US20240409645A1 (DUALYX, published 2024).
# T1: human IL-2Rβ (human, UniProt P14784 27-240, limits assumed)
# T1 construct: Recombinant human IL-2Rβ protein, coated on ELISA plates or immobilized on a CM5 chip; also called hu IL-2R; interleukin 2 receptor β-chain
# T1 sequence: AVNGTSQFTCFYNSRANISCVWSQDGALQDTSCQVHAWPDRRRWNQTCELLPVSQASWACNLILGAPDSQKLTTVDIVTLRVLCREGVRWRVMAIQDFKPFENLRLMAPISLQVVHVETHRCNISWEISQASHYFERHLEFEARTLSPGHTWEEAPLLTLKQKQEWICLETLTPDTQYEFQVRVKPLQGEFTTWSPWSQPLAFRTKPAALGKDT
# B1: FJ1427_P035MP06G08 (VHH)
# VHH: QVQLQESGGGLVQAGGSLRLSCAASGDVFVRYTMAWFRQAPGKEREFVASVTDSGRTTEYVDSVKGRFTVSRDNAKNTAYLQMNNLKPEDTAVYYCAANTDYFQIRSLNLNTWGQGTQVTVSS
# notes: Soluble VHH in periplasmic extract (P.E.); also called Clone nr; 543
# B2: FJ1427_P035MP06G10 (VHH)
# VHH: QVQLVESGGGLVQAGGSLRLSCAASGDVFVRYTMAWFRQAPGKEREFVASVTDSGRTTEYVDSVKGRFTVSRDNAKNTAYLQMNNLKPEDTAVYYCAANTDYFQIRSLNLNTWGQGTQVTVSS
# notes: Soluble VHH in periplasmic extract (P.E.); also called Clone nr
# B3: FJ1427_P035MP06H04 (VHH)
# VHH: EVQLVESGGGLVQAGGSLRLSCAVSGDVFVRYTMAWFRQAPGKEREFVASVTDSGRTTEYVDSVKGRFTVSRDNAKNTAYLQMNNLKPEDTAVYYCAANTDYFQIRSLDLNTWGQGTQVTVSS
# notes: as for B2
# B4: FJ1427_P035MP06H05 (VHH)
# VHH: QVQLVESGGRLVQAGGSLRLSCVVSGDVFVRYTMAWFRQAPGKEREFVAVVTDSGRTTEYVGSVKGRFTVSRDNAKNTVYLQMNNLKPEDTAVYYCAANTDYFQIRSVDNNAWGQGTQVTVSS
# notes: Soluble VHH in periplasmic extract (P.E.); also called Clone nr; 520
# B5: FJ1427_P035MP06H08 (VHH)
# VHH: QVQLVESGGGLVQAGGSLRLSCAASGDVFVRYTMAWFRQAPGKEREFVASVTDSGRTTEYVDSVKGRFTVSRDNAKNTAYLQMNNLKPEDTAIYYCAANTDYFQIRSLDLNTWGQGTQVTVSS
# notes: as for B2
# B6: FJ1427_P035MP06H03 (VHH)
# VHH: QVQLVESGGGLVQAGGSLRLSCAVSGDVFVRYTMAWFRQAPGKEREFVASVTDSGRTTEYVDSVKGRFTVSRDNAKNTAYLQMNNLKPEDTAVYYCAANTDYFQIRSLDLNTWGQGTQVTVSS
# notes: as for B2
# B7: FJ1427_P035MP06B04 (VHH)
# VHH: QVQLVESGGGLVQAGGSLRLSCAVSGDVFVRYTMAWFRQAPGKEREFVASVTDSGRTTEYVDSVKGRFTVSRDNAKNTAYLQMNNLKPEDTAVYYCAANTDYFQIRSLDLNTWGQGTQVTVSS
# notes: as for B2
# B8: FJ1427_P035MP06E04 (VHH)
# VHH: QVQLVESGGGLVQAGGSLRLSCAVSGDVFVRYTMAWFRQAPGKEREFVASVTDSGRTTEYVDSVKGRFTVSRDNAKNTAYLQMNNLKPEDTAVYYCAANTDYFQIRSLDLNTWGQGTQVTVSS
# notes: as for B2
# B9: FJ1427 P035MP06A08 (VHH)
# VHH: EVQLVESGGGLVQAGESLRLSCAASGQYFSTYSMAWFRRTPGKEREFVTIISESGGIKEYVDSVKGRFTVSRDNAKNTVYLQMNSLKPEDTAVYYCAAARDWFARNEYQYDYWGQGTQVTVSS
# notes: as for B2
# B10: FJ1427_P035MP06F09 (VHH)
# VHH: QVQLVESGGGLVQAGGSLTLSCAASGRAFSNYPVGWFRQAPGKEREFVAAITWLSGSTLYADSVEGRFTISRDNAKNTVYLLMSSLKPEDTALYFCAAALKTITRGQNDYSYWGQGTQVTVSS
# notes: Soluble VHH in periplasmic extract (P.E.); also called Clone nr; 550
# Assays:
# [1] = target: T1, human IL-2Rβ; test: SPR off-rate ranking of P.E., human IL-2Rβ immobilized
# Method: SPR was performed to determine dissociation rates using Biacore 3000 instrument (GE Healthcare). Briefly, human and mouse IL-2R proteins were immobilized on carboxylmethyl dextran sensor chip (CM5) at approximately 2500 RUs using amine coupling in acetate buffer (GE Healthcare). The VHH-containing P.E. were loaded with a flow rate of 30 uL/min and the off-rates were measured over a 120s period.
# [2] = target: T1, human IL-2Rβ; test: P.E. binding ELISA, human IL-2Rβ coated
# Method: In a binding ELISA, human or mouse IL-2Rα, IL-2Rβ and IL-2Rγ proteins were coated directly on maxisorp microtiter plates overnight at 4° C. Free binding sites were blocked using 4% Marvel in PBS for 1 hour. Next, 1:5 dilution of P.E. in 1% Marvel/PBS were added to wells and incubated for 1 hour. […] Binding specificity was determined based on O.D. at 450 nm values compared to negative controls.
Binder,koff [1],OD450 nm (P.E. binding ELISA) [2]
B1,0.000286 s⁻¹,0.255 OD450 nm
B2,0.000261 s⁻¹,1 OD450 nm
B3,0.000245 s⁻¹,1.02 OD450 nm
B4,0.000885 s⁻¹,0.59 OD450 nm
B5,0.000349 s⁻¹,0.313 OD450 nm
B6,0.000196 s⁻¹,0.239 OD450 nm
B7,0.000188 s⁻¹,0.935 OD450 nm
B8,0.000198 s⁻¹,0.974 OD450 nm
B9,0.000497 s⁻¹,0.44 OD450 nm
B10,0.000147 s⁻¹,0.564 OD450 nm
